Laboratory results: paper PMC8026773 (Alzheimer's & dementia : the journal of the Alzheimer's …, 2020)

Molecular target: GST-Aβ42 (monomeric amyloid beta 1-42 as a GST-fusion protein) (UniProt P05067 672-713)
Assay: BLI

Sequence of GST-Aβ42 (monomeric amyloid beta 1-42 as a GST-fusion protein) (P05067 672-713): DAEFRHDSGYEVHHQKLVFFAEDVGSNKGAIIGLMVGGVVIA

Kd [µM] | Binder
5.1 | human TREM2 Ig domain (aa 19-134), wild type, without BirA tag, in solution (domain or fragment, UniProt Q9NZC2 19-134, looked up) HNTTVFQGVAGQSLQVSCPYDSMKHWGRRKAWCRQLGEKGPCQRVVSTHNLWLLSFLRRWNGSTAITDDTLGGTLTITLRNLQPHDAGLYQCQSLHGSEADTLRKVLVEVLADPLD
3.8 | human sTREM2 (aa 19-157), wild type, in solution (domain or fragment, UniProt Q9NZC2 19-157, looked up) HNTTVFQGVAGQSLQVSCPYDSMKHWGRRKAWCRQLGEKGPCQRVVSTHNLWLLSFLRRWNGSTAITDDTLGGTLTITLRNLQPHDAGLYQCQSLHGSEADTLRKVLVEVLADPLDHRDAGDLWFPGESESFEDAHVEH
